Reference: US20050037969A1 (ARBOR VITA, published 2005)
Ends that are not written are not given here. * marks the point of attachment. Biotin = O=C1N[C@H]2[C@H](CS[C@H]2CCCCC(=O)*)N1

Assays:
Assay in all cases: A/G assays
[1] = molecular target: T1, GST-TAX-IP43 PDZ domain fusion protein (human, UniProt Q13884 109-180)
T1 construct: also called TAX43; not shown: glutathione S-transferase encoded by vector pGEX-3X (Pharmacia)
T1 sequence: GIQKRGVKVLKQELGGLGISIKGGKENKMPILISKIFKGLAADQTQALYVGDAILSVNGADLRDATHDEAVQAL

[2] = molecular target: T2, GST-LIM protein PDZ domain fusion protein (Human, UniProt Q96HC4 2-85)
T2 construct: also called Human LIM protein; not shown: glutathione S-transferase encoded by vector pGEX-3X (Pharmacia)
T2 sequence: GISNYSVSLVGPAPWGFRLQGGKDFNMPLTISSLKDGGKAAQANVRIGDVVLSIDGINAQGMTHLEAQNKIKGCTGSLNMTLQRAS

[3] = molecular target: T3, GST-TAX-IP2 PDZ domain fusion protein (human, UniProt O14908 129-216)
T3 construct: also called TAX-1P2; TAX2; not shown: glutathione S-transferase encoded by vector pGEX-3X (Pharmacia)
T3 chain: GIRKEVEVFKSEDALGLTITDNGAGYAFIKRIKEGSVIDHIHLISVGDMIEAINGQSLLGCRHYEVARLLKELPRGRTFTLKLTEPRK

[4] = molecular target: T4, GST-MPP1 PDZ domain fusion protein (Homo sapiens (Human), UniProt Q00013 67-152)
T4 construct: also called p55; 55 Kd erythrocyte membrane protein; not shown: glutathione S-transferase encoded by vector pGEX-3X (Pharmacia)
T4 sequence: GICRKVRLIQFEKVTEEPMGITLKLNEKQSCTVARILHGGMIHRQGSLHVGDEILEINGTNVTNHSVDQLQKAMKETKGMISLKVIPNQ

[5] = molecular target: T5, GST-AF6 PDZ domain fusion protein (Homo sapiens (Human), UniProt P55196 1001-1093)
T5 construct: also called af-6 protein; not shown: glutathione S-transferase encoded by vector pGEX-3X (Pharmacia)
T5 sequence: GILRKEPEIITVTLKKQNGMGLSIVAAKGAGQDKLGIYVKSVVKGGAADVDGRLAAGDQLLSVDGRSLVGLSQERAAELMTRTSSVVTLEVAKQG

[6] = molecular target: T6, GST-PDZK1 fusion protein (PDZ domains 2-4) (Homo sapiens, UniProt Q5T2W1 134-457)
T6 construct: not shown: glutathione S-transferase encoded by vector pGEX-3X (Pharmacia)
T6 sequence: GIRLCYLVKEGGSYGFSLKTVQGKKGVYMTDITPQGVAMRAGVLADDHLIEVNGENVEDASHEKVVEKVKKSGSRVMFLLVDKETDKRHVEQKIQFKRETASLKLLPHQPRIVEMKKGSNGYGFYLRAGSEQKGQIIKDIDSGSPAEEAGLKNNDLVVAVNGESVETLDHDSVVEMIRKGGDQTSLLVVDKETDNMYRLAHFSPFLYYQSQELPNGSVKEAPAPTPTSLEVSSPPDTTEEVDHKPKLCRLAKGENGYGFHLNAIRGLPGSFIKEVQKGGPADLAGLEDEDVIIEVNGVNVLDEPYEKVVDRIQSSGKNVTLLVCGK

[7] = molecular target: T7, GST-mouse syntenin fusion protein (Mus musculus, UniProt O08992 108-286)
T7 construct: also called Mus musculus Syntenin; not shown: glutathione S-transferase encoded by vector pGEX-3X (Pharmacia)
T7 chain: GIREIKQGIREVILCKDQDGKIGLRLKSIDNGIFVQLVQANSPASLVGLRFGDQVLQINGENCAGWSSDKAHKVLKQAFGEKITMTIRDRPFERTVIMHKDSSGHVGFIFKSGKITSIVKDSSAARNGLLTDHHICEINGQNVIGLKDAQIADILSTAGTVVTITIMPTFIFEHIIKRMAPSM

[8] = molecular target: T8, GST-TAX-IP40 PDZ domain fusion protein (human, UniProt Q6B4M5 150-252 (rat entry))
T8 construct: also called TAX40; not shown: glutathione S-transferase encoded by vector pGEX-3X (Pharmacia)
T8 sequence: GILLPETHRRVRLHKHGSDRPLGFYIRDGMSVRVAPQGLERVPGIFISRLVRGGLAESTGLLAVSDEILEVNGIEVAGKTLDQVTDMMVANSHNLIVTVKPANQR

[9] = molecular target: T9, X11β PDZ-GST fusion protein (Rattus norvegicus (Rat), UniProt O35431 560-745)
T9 construct: Order of GST and PDZ part and limits not seen in the excerpts
T9 chain: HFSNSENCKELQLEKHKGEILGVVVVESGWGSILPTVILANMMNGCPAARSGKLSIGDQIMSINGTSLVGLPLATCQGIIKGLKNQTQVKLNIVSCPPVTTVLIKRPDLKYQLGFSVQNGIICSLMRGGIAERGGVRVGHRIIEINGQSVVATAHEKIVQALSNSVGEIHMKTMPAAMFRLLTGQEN

[10] = molecular target: T10, TAX-IP33 PDZ-GST fusion protein (Homo sapiens (Human), UniProt O14910 103-193)
T10 construct: Order of GST and PDZ part and limits not seen in the excerpts
T10 sequence: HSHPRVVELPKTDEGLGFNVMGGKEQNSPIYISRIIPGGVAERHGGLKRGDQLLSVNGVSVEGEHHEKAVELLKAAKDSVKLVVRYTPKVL

[11] = molecular target: T11, K559 PDZ-GST fusion protein (Homo sapiens (Human), UniProt Q9Y6V0 4489-4593)
T11 construct: Order of GST and PDZ part and limits not seen in the excerpts
T11 sequence: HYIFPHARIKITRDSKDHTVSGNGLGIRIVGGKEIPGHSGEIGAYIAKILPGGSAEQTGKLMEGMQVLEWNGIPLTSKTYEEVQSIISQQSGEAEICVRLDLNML

[12] = molecular target: T12, PICK1 PDZ-GST fusion protein (Bos taurus (Bovine), UniProt Q2T9M1 17-105)
T12 construct: Order of GST and PDZ part and limits not seen in the excerpts

[13] = molecular target: T13, K316 PDZ-GST fusion protein (Homo sapiens (Human), UniProt Q14CM0 72-159)
T13 construct: Order of GST and PDZ part and limits not seen in the excerpts

[14] = molecular target: T14, K858 PDZ-GST fusion protein (Homo sapiens (Human), UniProt Q8WWI1 1038-1131)
T14 construct: Order of GST and PDZ part and limits not seen in the excerpts
T14 sequence: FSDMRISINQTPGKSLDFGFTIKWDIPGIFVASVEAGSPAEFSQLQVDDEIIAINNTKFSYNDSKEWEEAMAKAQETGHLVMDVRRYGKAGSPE

[15] = molecular target: T15, SP short PDZ-GST fusion protein (Homo sapiens (Human), UniProt O43464 350-435)
T15 construct: The label SP short is not explained in the excerpts
T15 sequence: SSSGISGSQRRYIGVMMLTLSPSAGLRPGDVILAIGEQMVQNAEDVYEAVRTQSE

Measured: binding result

T13 sequence (Q14CM0 72-159 limits assumed): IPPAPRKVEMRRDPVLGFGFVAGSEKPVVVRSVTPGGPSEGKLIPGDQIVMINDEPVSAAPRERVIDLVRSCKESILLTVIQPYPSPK
T12 sequence (Q2T9M1 other isoform, or with tags, fused parts or gaps limits assumed): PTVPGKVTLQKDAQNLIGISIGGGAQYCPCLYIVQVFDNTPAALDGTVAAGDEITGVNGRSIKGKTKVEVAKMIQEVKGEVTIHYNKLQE

Biotin-PYGTAMEKAQLKPPATSDA (also called CD49E (alpha-4)) [CD49E C-terminal peptide AA11L, biotinylated]
no binding: all assays above

Biotin-KDITSDSENSNFRNEIQSLV (also called CD95 (Apo-1/Fas); AAI3L) [CD95 (Fas) C-terminal peptide AA13L, biotinylated]
no binding: all assays above

Biotin-TTNNNPNSAVNIKKIFTDV [KV1.3 C-terminal peptide AA33L, biotinylated]
no binding: all assays above

Biotin-STNHSIGSTQSTPCSTSSMA (also called CD105 (endoglin)) [CD105 C-terminal peptide AA16L, biotinylated]
not listed: [2]
no binding: all other assays above

Biotin-PSWRRSSLSESENATSLTTF (also called CXCR5) [BLR-1 C-terminal peptide AA45L, biotinylated]
not listed: [6]
no binding: all other assays above

Biotin-SVFSIPTLWSPWPPSSSSQL (also called CD3η; CD3-eta) [CD3n C-terminal peptide AA4L, biotinylated]
no binding: all assays above

Biotin-CAISGTSSDRGYGSPRYAEV (also called AA3L-V) [Clasp-4 C-terminal peptide AA3L, biotinylated]
not listed: [5]
no binding: all other assays above

B1: CD138 C-terminal peptide AA18L, biotinylated (peptide)
peptide: Biotin-PKQANGGAYQKPTKQEEFYA
notes: also called CD138 (syndecan-1); CD138 (syndecan)
not listed: [7]
no binding: all other assays above
